± gives the uncertainty stated by the source.
B1: Neutrophil cytosol factor 2, residues 456 to 514; numbered along this chain, P19878 (parent)
chain: LKKGSQVEALFSYEATQPEDLEFQEGDIILVLSKVNEEWLEGECKGKVGIFPKVFVEDC

Variants of: B1
Experiment: abundance fitness (aPCA) (normalised: wild type 0, dead -1); higher = more abundant; growth selection in yeast, the domain comes from the species named
Details: Homo sapiens

Q: For LKKGSQVEALFSYEATQPEDLEFQEGDIILVLSKVNEEWLEGECKGKVGIFPKYFVEDC [V54Y], which abundance fitness is on record?
A: -0.03 ± 0.12

Q: For LKKGSQVEALFSYEATQPEDLEFQEGDIILVLSKVNEEWLEGECKGKVGIFPKDFVEDC [V54D], which abundance fitness is on record?
A: 0.049 ± 0.12

Q: With LKKGSQVEALFSYEATQPEDLEFQEGDIILVLSKVNEEWLEGECKGKVGIFPKGFVEDC [V54G] as the variant, how does the abundance fitness read?
A: -0.209 ± 0.097

Q: With LKKGSQVEALFSYEATQPEDLEFQEGDIILVLSKVNEEWLEGECKGKVGIFPKLFVEDC [V54L] as the variant, how does the abundance fitness read?
A: -0.434 ± 0.13

Q: For LKKGSQVEALFSYEATQPEDLEFQEGDIILVLSKVNEEWLEGECKGKVGIFPKWFVEDC [V54W], which abundance fitness is on record?
A: -0.438 ± 0.2

Q: With LKKGSQVEALFSYEATQPEDLEFQEGDIILVLSKVNEEWLEGECKGKVGIFPKHFVEDC [V54H] as the variant, how does the abundance fitness read?
A: 0.425 ± 0.1

Q: With LKKGSQVEALFSYEATQPEDLEFQEGDIILVLSKVNEEWLEGECKGKVGIFPKFFVEDC [V54F] as the variant, how does the abundance fitness read?
A: -0.203 ± 0.13

Q: For LKKGSQVEALFSYEATQPEDLEFQEGDIILVLSKVNEEWLEGECKGKVGIFPKCFVEDC [V54C], which abundance fitness is on record?
A: 0.378 ± 0.078

Q: With LKKGSQVEALFSYEATQPEDLEFQEGDIILVLSKVNEEWLEGECKGKVGIFPKQFVEDC [V54Q] as the variant, how does the abundance fitness read?
A: 0.298 ± 0.15

Q: Which abundance fitness does the source give for LKKGSQVEALFSYEATQPEDLEFQEGDIILVLSKVNEEWLEGECKGKVGIFPKAFVEDC [V54A] here?
A: 0.431 ± 0.11

Q: With LKKGSQVEALFSYEATQPEDLEFQEGDIILVLSKVNEEWLEGECKGKVGIFPKTFVEDC [V54T] as the variant, how does the abundance fitness read?
A: 0.18 ± 0.12

Q: With LKKGSQVEALFSYEATQPEDLEFQEGDIILVLSKVNEEWLEGECKGKVGHFPKVFVEDC [I50H] as the variant, how does the abundance fitness read?
A: -0.371 ± 0.18

Q: For LKKGSQVEALFSYEATQPEDLEFQEGDIILVLSKVNEEWLEGECKGKVGPFPKVFVEDC [I50P], which abundance fitness is on record?
A: 0.096 ± 0.24

Q: Which abundance fitness does the source give for LKKGSQVEALFSYEATQPEDLEFQEGDIILVLSKVNEEWLEGECKGKVGYFPKVFVEDC [I50Y] here?
A: -0.208 ± 0.14

Q: For LKKGSQVEALFSYEATQPEDLEFQEGDIILVLSKVNEEWLEGECKGKVGEFPKVFVEDC [I50E], which abundance fitness is on record?
A: -0.58 ± 0.32

Q: With LKKGSQVEALFSYEATQPEDLEFQEGDIILVLSKVNEEWLEGECKGKVGMFPKVFVEDC [I50M] as the variant, how does the abundance fitness read?
A: -0.621 ± 0.31

Q: Which abundance fitness does the source give for LKKGSQVEALFSYEATQPEDLEFQEGDIILVLSKVNEEWLEGECKGKVGQFPKVFVEDC [I50Q] here?
A: -0.659 ± 0.43

Q: For LKKGSQVEALFSYEATQPEDLEFQEGDIILVLSKVNEEWLEGECKGKVGKFPKVFVEDC [I50K], which abundance fitness is on record?
A: 0.108 ± 0.18

Q: For LKKGSQVEALFSYEATQPEDLEFQEGDIILVLSKVNEEWLEGECKGKVGCFPKVFVEDC [I50C], which abundance fitness is on record?
A: -0.4 ± 0.15

Q: Which abundance fitness does the source give for LKKGSQVEALFSYEATQPEDLEFQEGDIILVLSKVNEEWLEGECKGKVGSFPKVFVEDC [I50S] here?
A: -0.448 ± 0.14

Q: For LKKGSQVEALFSYEATQPEDLEFQEGDIILVLSKVNEEWLEGECKGKVGGFPKVFVEDC [I50G], which abundance fitness is on record?
A: -0.347 ± 0.12

Q: For LKKGSQVEALFSYEATQPEDLEFQEGDIILVLSKVNEEWLEGECKGKVGVFPKVFVEDC [I50V], which abundance fitness is on record?
A: -0.298 ± 0.12

Q: Which abundance fitness does the source give for LKKGSQVEALFSYEATQPEDLEFQEGDIILVLSKVNEEWLEGECKGKVGRFPKVFVEDC [I50R] here?
A: -0.125 ± 0.11

Q: Which abundance fitness does the source give for LKKGSQVEALFSYEATQPEDLEFQEGDIILVLSKVNEEWLEGECKGKVGAFPKVFVEDC [I50A] here?
A: -0.213 ± 0.17

Q: With LKKGSQVEALFSYEATQPEDLEFQEGDIILVLSKVNEEWLEGECKGKVGFFPKVFVEDC [I50F] as the variant, how does the abundance fitness read?
A: -0.389 ± 0.14

Q: With LKKGSQVEALFSYEATQPEDLEFQEGDIILVLSKVNEEWLEGECKGKVGDFPKVFVEDC [I50D] as the variant, how does the abundance fitness read?
A: -0.306 ± 0.16

Q: For LKKGSQVEALFSYEATQPEDLEFQEGDIILVLSKVNEEWLEGECKGKVGNFPKVFVEDC [I50N], which abundance fitness is on record?
A: -0.821 ± 0.22

Q: Which abundance fitness does the source give for LKKGSQVEALFSYEATQPEDLEFQEGDIILVLSKVNEEWLEGECKGKVGIFPWVFVEDC [K53W] here?
A: -0.808 ± 0.46

Q: With LKKGSQVEALFSYEATQPEDLEFQEGDIILVLSKVNEEWLEGECKGKVGIFPGVFVEDC [K53G] as the variant, how does the abundance fitness read?
A: 0.02 ± 0.1

Q: With LKKGSQVEALFSYEATQPEDLEFQEGDIILVLSKVNEEWLEGECKGKVGIFPVVFVEDC [K53V] as the variant, how does the abundance fitness read?
A: -0.536 ± 0.15

Q: With LKKGSQVEALFSYEATQPEDLEFQEGDIILVLSKVNEEWLEGECKGKVGIFPRVFVEDC [K53R] as the variant, how does the abundance fitness read?
A: 0.195 ± 0.1

Q: For LKKGSQVEALFSYEATQPEDLEFQEGDIILVLSKVNEEWLEGECKGKVGIFPTVFVEDC [K53T], which abundance fitness is on record?
A: -0.707 ± 0.24

Q: Which abundance fitness does the source give for LKKGSQVEALFSYEATQPEDLEFQEGDIILVLSKVNEEWLEGECKGKVGIFPHVFVEDC [K53H] here?
A: -0.928 ± 0.24

Q: For LKKGSQVEALFSYEATQPEDLEFQEGDIILVLSKVNEEWLEGECKGKVGIFPFVFVEDC [K53F], which abundance fitness is on record?
A: -0.857 ± 0.25

Q: For LKKGSQVEALFSYEATQPEDLEFQEGDIILVLSKVNEEWLEGECKGKVGIFPNVFVEDC [K53N], which abundance fitness is on record?
A: -0.378 ± 0.15

Q: Which abundance fitness does the source give for LKKGSQVEALFSYEATQPEDLEFQEGDIILVLSKVNEEWLEGECKGKVGIFPAVFVEDC [K53A] here?
A: -0.246 ± 0.13

Q: For LKKGSQVEALFSYEATQPEDLEFQEGDIILVLSKVNEEWLEGECKGKVGIFPIVFVEDC [K53I], which abundance fitness is on record?
A: -0.865 ± 0.21

Q: With LKKGSQVEALFSYEATQPEDLEFQEGDIILVLSKVNEEWLEGECKGKVGIFPCVFVEDC [K53C] as the variant, how does the abundance fitness read?
A: -0.848 ± 0.25

Q: For LKKGSQVEALFSYEATQPEDLEFQEGDIILVLSKVNEEWLEGECKGKVGIFPSVFVEDC [K53S], which abundance fitness is on record?
A: -0.39 ± 0.12

Q: For LKKGSQVEALFSYEATQPEDLEFQEGDIILVLSKVNEEWLEGECKGKVGIFPYVFVEDC [K53Y], which abundance fitness is on record?
A: -0.722 ± 0.18

Q: Which abundance fitness does the source give for LKKGSQVEALFSYEATQPEDLEFQEGDIILVLSKVNEEWLEGECKGKVGIFPMVFVEDC [K53M] here?
A: -0.549 ± 0.39

Q: With LKKGSQVEALFSYEATQPEDLEFQEGDIILVLSKVNEEWLEGECKGKVGIFPDVFVEDC [K53D] as the variant, how does the abundance fitness read?
A: -0.61 ± 0.18

Q: For LKKGSQVEALFSYEATQPEDLEFQEGDIILVLSKVNEEWLEGECKGKVGIFPPVFVEDC [K53P], which abundance fitness is on record?
A: -0.716 ± 0.29

Q: With LKKGSQVEALFSYEATQPEDLEFQEGDIILVLSKVNEEWLEGECKGKVGIFPLVFVEDC [K53L] as the variant, how does the abundance fitness read?
A: -0.749 ± 0.2

Q: Which abundance fitness does the source give for LKKGSQVEALFSYEATQPEDLEFQEGDIILVLSKVNEEWLEGECKGKVGIFPEVFVEDC [K53E] here?
A: -0.353 ± 0.24

From the Human Domainome abundance scans (Beltran et al. 2025)
